Measured values taken from PMC2862297 (Journal of molecular biology, 2010).

Target: the molecule itself
Assay: cryo-EM structure

B1: LTag108-627 deletion mutant of SV40 large T antigen (domain or fragment)
chain: EMPSSDDEATADSQHSTPPKKKRKVEDPKDFPSELLSFLSHAVFSNRTLACFAIYTTKEKAALLYKKIMEKYSVTFISRHNSYNHNILFFLTPHRHRVSAINNYAQKLCTFSFLICKGVNKEYLMYSALTRDPFSVIEESLPGGLKEHDFNPEEAEETKQVSWKLVTEYAMETKCDDVLLLLGMYLEFQYSFEMCLKCIKKEQPSHYKYHEKHYANAAIFADSKNQKTICQQAVDTVLAKKRVDSLQLTREQMLTNRFNDLLDRMDIMFGSTGSADIEEWMAGVAWLHCLLPKMDSVVYDFLKCMVYNIPKKRYWLFKGPIDSGKTTLAAALLELCGGKALNVNLPLDRLNFELGVAIDQFLVVFEDVKGTGGESRDLPSGQGINNLDNLRDYLDGSVKVNLEKKHLNKRTQIFPPGIVTMNEYSVPKTLQARFVKQIDFRPKDYLKHCLERSEFLLEKRIIQSGIALLLMLIWYRPVAEFAQSIQSRIVEWKERLDKEFSLSVYQKMKFNVAMGIGVLD
stoichiometry N: 12
